Reference: US20210253679A1 (NATIONAL RESEARCH COUNCIL OF CANADA, published 2021)

B1: Rh46 sdAb (VHH)
VHH: QVKLEESGGGLVQAGGSLRLSCTASTRTFSSYIMGWFRQAPGKERELVAAISWSGRMTHYADSVKGRFAISRDNAKNTVYLQMNVLKPEDTAIYSCAADRTTAWGAPRSQYDSWGQGTQVTVSS
notes: also called Rh46 VHH
B2: H18 sdAb (VHH)
VHH: QVQLVESGGGLVQAGGSLRLSCTASGSIESINRMAWYRQAPGQQREFVARISKGGSTNYPDSVKGRFTISRDNAKNTVYLQMNSLKPEDTAVYYCAAGPVWEQFWGQGTQVTVSS
notes: also called H18 VHH
B3: Rh34 sdAb (VHH)
VHH: QVKLEESGGGLVQAGGSLRLSCAASGRTISLYAVGWFRRAPGKEREFVAAISWTDSSTYYADSVKGRFTISRDNAKNTVYLGMNSLNPEDTAVYYCAADVSIRGLQKYEYDYWGQGTQVTVSS
notes: also called Rh34 VHH
B4: B39-R11 (bispecific antibody, not shown: small tags and cut ends)
chain: QVQLVESGGGLVQAGGSLRLSCAASGLTFSRYVMGWFRQAPGKEREFVAAITWGGTPNYADSVKGRFTISRDNSKNTQYLQMNSLKPEDTAVYYCAAGLGWDSRYSQSYNYWGQGTQVTVSSGGGGSGGGGSGGGGSGGGGSGGGGSQVKLEESGGGLVQAGGSLRLSCVGPGFLLRSNTMGWYRQAPGKERELVAFIRPSGLTNYNDAVQGRFTISRDNAKNTVYLQMNALKPEDTAVYYCHTRPPFQRDSWGQGTQVTVSS
B5: B39-M75 (bispecific antibody, not shown: small tags and cut ends)
chain: QVQLVESGGGLVQAGGSLRLSCAASGLTFSRYVMGWFRQAPGKEREFVAAITWGGTPNYADSVKGRFTISRDNSKNTQYLQMNSLKPEDTAVYYCAAGLGWDSRYSQSYNYWGQGTQVTVSSGGGGSGGGGSGGGGSGGGGSGGGGSQVQLVESGGGFVQAGGSLRLSCAASGRTFDNYVMAWFRQAPGKEREFVASISGSGSITNYANSVKDRFTISRDSAKNAIYLQMNSLKPEDTALYYCAAGSRRTYYREPKFYPSWGQGTQVTVSS
B6: B39-R28 (bispecific antibody, not shown: small tags and cut ends)
chain: QVQLVESGGGLVQAGGSLRLSCAASGLTFSRYVMGWFRQAPGKEREFVAAITWGGTPNYADSVKGRFTISRDNSKNTQYLQMNSLKPEDTAVYYCAAGLGWDSRYSQSYNYWGQGTQVTVSSGGGGSGGGGSGGGGSGGGGSGGGGSQVQLVESGGGLVQAGGSLRLSCVASGRTFIAYAMGWFRQAPGKEREFVAAITNFAGGTTYYADSVKGRFTISRDNAKTTVYLQMNSLKPEDTALYYCAADRSAQTMRQVRPVLPYWGQGTQVTVSS
B7: B39-M79 (bispecific antibody, not shown: small tags and cut ends)
chain: QVQLVESGGGLVQAGGSLRLSCAASGLTFSRYVMGWFRQAPGKEREFVAAITWGGTPNYADSVKGRFTISRDNSKNTQYLQMNSLKPEDTAVYYCAAGLGWDSRYSQSYNYWGQGTQVTVSSGGGGSGGGGSGGGGSGGGGSGGGGSQVKLEESGGGLVQAGGSLKLSCAASGSTFSSSSVGWYRQAPGQQRELVAAITSGGSTNTADSVKGRFTMSRDNAKNTVYLQMRDLKPEDTAVYYCNVAGRNWVPISRYSPGPYWGQGTQVTVSS
B8: R28-H1 (VHH)
VHH: EVQLVESGGGLVQPGGSLRLSCAASGRTFIAYAMGWFRQAPGKGLEFVSAITNFAGGTTYYADSVKGRFTISRDNSKNTLYLQMNSLRAEDTAVYYCAADRSAQTMRQVRPVLPYWGQGTLVTVSS

Each binder was assayed against T1, rhesus serum albumin (rhesus, UniProt Q28522 17-600) (assay: SPR, single cycle kinetics, pH 7.4).
T1 construct: also called RhSA

Row | Binder | Kd
1 | B1 | 81 nM
2 | B2 | 48 nM
3 | B3 | 333 nM

Each binder was assayed against T2, human serum albumin (human, UniProt P02768 25-609) (assay: SPR, single cycle kinetics, pH 7.4).
T2 construct: also called HSA

Row | Binder | Kd
4 | B1 | 80 nM
5 | B2 | 34 nM
6 | B3 | 286 nM

Each binder was assayed against T2, human serum albumin (assay: SPR, single-concentration injection over an HSA surface).

Row | Binder | binding result
7 | B4 | binds
8 | B5 | binds
9 | B6 | binds
10 | B7 | binds

Each binder was assayed against T3, rat serum albumin (rat, UniProt P02770 25-608) (assay: SPR, single cycle kinetics, pH 7.4).
T3 construct: also called RSA

Row | Binder | Kd | binding result
11 | B8 | 5.3 nM | –
12 | B1 | – | no binding
13 | B2 | – | no binding
14 | B3 | – | no binding

Target: T1, rhesus serum albumin
Assay: SPR, single cycle kinetics, pH 7.4
Remark: another data set of the same source

Row | Binder | Kd
15 | B8 | 2710 nM
16 | B1 | 80.8 nM
17 | B2 | 47.6 nM
18 | B3 | 333 nM

Target: T2, human serum albumin
Assay: SPR, single cycle kinetics, pH 7.4
Remark: another data set of the same source

Row | Binder | Kd
19 | B8 | 162 nM
20 | B1 | 80.1 nM
21 | B2 | 33.9 nM
22 | B3 | 286 nM

What follows are binders tested against T1, rhesus serum albumin (assay: SPR, single cycle kinetics, pH 5.5).

Row | Binder | Kd
23 | B1 | 30 nM
24 | B2 | 42 nM
25 | B3 | 167 nM

Each binder was assayed against T2, human serum albumin (assay: SPR, single cycle kinetics, pH 5.5).

Row | Binder | Kd
26 | B1 | 41 nM
27 | B2 | 46 nM
28 | B3 | 129 nM

Each binder was assayed against T3, rat serum albumin (assay: SPR, single cycle kinetics, pH 5.5).

Row | Binder | Kd
29 | B8 | 6.5 nM

Target: T1, rhesus serum albumin
Assay: SPR, single cycle kinetics, pH 5.5
Remark: another data set of the same source

Row | Binder | Kd
30 | B8 | 28.7 nM
31 | B1 | 29.6 nM
32 | B2 | 42.2 nM
33 | B3 | 167 nM

Target: T2, human serum albumin
Assay: SPR, single cycle kinetics, pH 5.5
Remark: another data set of the same source

Row | Binder | Kd
34 | B8 | 15.2 nM
35 | B1 | 41.3 nM
36 | B2 | 46.2 nM
37 | B3 | 129 nM
